The results in this text go back to US20130101595A1.

Experiment [1] addresses recombinant human IL-18 (rhIL-18) (human) (UniProt Q14116). The experiment in a line: cell-based or functional assay.
For experiment [2] the target is unchanged. The experiment in a line: SPR (BIAcore), biotinylated rhIL-18 on streptavidin chip, antibody in solution.

B1: 125-2H (antibody, from another filing, V domains shown)
VH: EIQLQQSGPELVKPGASVKVSCKASGYSFTDYFIYWVKQSHGKSLEWIGDIDPYNGDTSYNQKFRDKATLTVDQSSTTAFMHLNSLTSEDSAVYFCARGLRFWGQGTLVTVSA
VL: DIQMTQSPSSLSASLGERVSLTCRASQDIGSKLYWLQQEPDGTFKRLIYATSSLDSGVPKRFSGSRSGSDYSLTISSLESEDFVDYYCLQYASSPYTFGGGTKLAIKR
The Kd is the concentration at which binding is half-saturated. A word on the koff: it is the first-order rate constant of dissociation. As a reminder, the kon is the second-order rate constant of association. In the case of B1, in experiment [1], the IC50 Value, KG-1 cell-based IL-18 neutralization assay (hIFN-gamma) is 200 pM. In addition, in experiment [2], the dissociation constant Kd is 620 pM, the koff stood at 0.00011 s⁻¹ and the on-rate (kon) is 170000 M⁻¹ s⁻¹.
